Molecular target: T1, VEGF (human, UniProt P15692-4 27-191, limits assumed)
T1 construct: also called human VEGF; vascular endothelial growth factor
Assay: competitive phage-ELISA, wt = pY0192

T1 sequence (P15692 other isoform, or with tags, fused parts or gaps limits assumed): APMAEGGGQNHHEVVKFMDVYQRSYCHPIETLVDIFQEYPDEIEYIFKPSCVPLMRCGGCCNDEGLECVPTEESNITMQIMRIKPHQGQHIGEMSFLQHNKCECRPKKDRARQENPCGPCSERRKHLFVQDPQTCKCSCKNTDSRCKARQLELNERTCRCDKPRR

Binder	IC50 (mut) / IC50 (wt)
pY0192 VH Y27A (Fab, V domains shown) VH: EVQLVESGGGLVQPGGSLRLSCAASGATFTNYGINWVRQAPGKGLEWVGWINTYTGEPTYAADFKRRFTFSLDTSKSTAYLQMNSLRAEDTAVYYCAKYPHYYGSSHWYFDVWGQGTL VL: DIQLTQSPSSLSASVGDRVTITCRANEQLSNYLNWYQQKPGKAPKVLIYFTSSLHSGVPSRFSGSGSGTDFTLTISSLQPEDFATYYCQQYSTVPWTFGQGTKVEIKR	34
pY0192 VH F29A (Fab, V domains shown) VH: EVQLVESGGGLVQPGGSLRLSCAASGYTATNYGINWVRQAPGKGLEWVGWINTYTGEPTYAADFKRRFTFSLDTSKSTAYLQMNSLRAEDTAVYYCAKYPHYYGSSHWYFDVWGQGTL VL: DIQLTQSPSSLSASVGDRVTITCRANEQLSNYLNWYQQKPGKAPKVLIYFTSSLHSGVPSRFSGSGSGTDFTLTISSLQPEDFATYYCQQYSTVPWTFGQGTKVEIKR	16
pY0192 VH N31A (Fab, V domains shown) VH: EVQLVESGGGLVQPGGSLRLSCAASGYTFTAYGINWVRQAPGKGLEWVGWINTYTGEPTYAADFKRRFTFSLDTSKSTAYLQMNSLRAEDTAVYYCAKYPHYYGSSHWYFDVWGQGTL VL: DIQLTQSPSSLSASVGDRVTITCRANEQLSNYLNWYQQKPGKAPKVLIYFTSSLHSGVPSRFSGSGSGTDFTLTISSLQPEDFATYYCQQYSTVPWTFGQGTKVEIKR	> 150
pY0192 VH Y32A (Fab, V domains shown) VH: EVQLVESGGGLVQPGGSLRLSCAASGYTFTNAGINWVRQAPGKGLEWVGWINTYTGEPTYAADFKRRFTFSLDTSKSTAYLQMNSLRAEDTAVYYCAKYPHYYGSSHWYFDVWGQGTL VL: DIQLTQSPSSLSASVGDRVTITCRANEQLSNYLNWYQQKPGKAPKVLIYFTSSLHSGVPSRFSGSGSGTDFTLTISSLQPEDFATYYCQQYSTVPWTFGQGTKVEIKR	> 150
pY0192 VH G33A (Fab, V domains shown) VH: EVQLVESGGGLVQPGGSLRLSCAASGYTFTNYAINWVRQAPGKGLEWVGWINTYTGEPTYAADFKRRFTFSLDTSKSTAYLQMNSLRAEDTAVYYCAKYPHYYGSSHWYFDVWGQGTL VL: DIQLTQSPSSLSASVGDRVTITCRANEQLSNYLNWYQQKPGKAPKVLIYFTSSLHSGVPSRFSGSGSGTDFTLTISSLQPEDFATYYCQQYSTVPWTFGQGTKVEIKR	6
pY0192 VH I34A (Fab, V domains shown) VH: EVQLVESGGGLVQPGGSLRLSCAASGYTFTNYGANWVRQAPGKGLEWVGWINTYTGEPTYAADFKRRFTFSLDTSKSTAYLQMNSLRAEDTAVYYCAKYPHYYGSSHWYFDVWGQGTL VL: DIQLTQSPSSLSASVGDRVTITCRANEQLSNYLNWYQQKPGKAPKVLIYFTSSLHSGVPSRFSGSGSGTDFTLTISSLQPEDFATYYCQQYSTVPWTFGQGTKVEIKR	6
pY0192 VH N35A (Fab, V domains shown) VH: EVQLVESGGGLVQPGGSLRLSCAASGYTFTNYGIAWVRQAPGKGLEWVGWINTYTGEPTYAADFKRRFTFSLDTSKSTAYLQMNSLRAEDTAVYYCAKYPHYYGSSHWYFDVWGQGTL VL: DIQLTQSPSSLSASVGDRVTITCRANEQLSNYLNWYQQKPGKAPKVLIYFTSSLHSGVPSRFSGSGSGTDFTLTISSLQPEDFATYYCQQYSTVPWTFGQGTKVEIKR	66
pY0192 VH W50A (Fab, V domains shown) VH: EVQLVESGGGLVQPGGSLRLSCAASGYTFTNYGINWVRQAPGKGLEWVGAINTYTGEPTYAADFKRRFTFSLDTSKSTAYLQMNSLRAEDTAVYYCAKYPHYYGSSHWYFDVWGQGTL VL: DIQLTQSPSSLSASVGDRVTITCRANEQLSNYLNWYQQKPGKAPKVLIYFTSSLHSGVPSRFSGSGSGTDFTLTISSLQPEDFATYYCQQYSTVPWTFGQGTKVEIKR	> 150
pY0192 VH I51A (Fab, V domains shown) VH: EVQLVESGGGLVQPGGSLRLSCAASGYTFTNYGINWVRQAPGKGLEWVGWANTYTGEPTYAADFKRRFTFSLDTSKSTAYLQMNSLRAEDTAVYYCAKYPHYYGSSHWYFDVWGQGTL VL: DIQLTQSPSSLSASVGDRVTITCRANEQLSNYLNWYQQKPGKAPKVLIYFTSSLHSGVPSRFSGSGSGTDFTLTISSLQPEDFATYYCQQYSTVPWTFGQGTKVEIKR	4
pY0192 VH N52A (Fab, V domains shown) VH: EVQLVESGGGLVQPGGSLRLSCAASGYTFTNYGINWVRQAPGKGLEWVGWIATYTGEPTYAADFKRRFTFSLDTSKSTAYLQMNSLRAEDTAVYYCAKYPHYYGSSHWYFDVWGQGTL VL: DIQLTQSPSSLSASVGDRVTITCRANEQLSNYLNWYQQKPGKAPKVLIYFTSSLHSGVPSRFSGSGSGTDFTLTISSLQPEDFATYYCQQYSTVPWTFGQGTKVEIKR	> 150
pY0192 VH T53A (Fab, V domains shown) VH: EVQLVESGGGLVQPGGSLRLSCAASGYTFTNYGINWVRQAPGKGLEWVGWINAYTGEPTYAADFKRRFTFSLDTSKSTAYLQMNSLRAEDTAVYYCAKYPHYYGSSHWYFDVWGQGTL VL: DIQLTQSPSSLSASVGDRVTITCRANEQLSNYLNWYQQKPGKAPKVLIYFTSSLHSGVPSRFSGSGSGTDFTLTISSLQPEDFATYYCQQYSTVPWTFGQGTKVEIKR	9
pY0192 VH Y54A (Fab, V domains shown) VH: EVQLVESGGGLVQPGGSLRLSCAASGYTFTNYGINWVRQAPGKGLEWVGWINTATGEPTYAADFKRRFTFSLDTSKSTAYLQMNSLRAEDTAVYYCAKYPHYYGSSHWYFDVWGQGTL VL: DIQLTQSPSSLSASVGDRVTITCRANEQLSNYLNWYQQKPGKAPKVLIYFTSSLHSGVPSRFSGSGSGTDFTLTISSLQPEDFATYYCQQYSTVPWTFGQGTKVEIKR	9
pY0192 VH T55A (Fab, V domains shown) VH: EVQLVESGGGLVQPGGSLRLSCAASGYTFTNYGINWVRQAPGKGLEWVGWINTYAGEPTYAADFKRRFTFSLDTSKSTAYLQMNSLRAEDTAVYYCAKYPHYYGSSHWYFDVWGQGTL VL: DIQLTQSPSSLSASVGDRVTITCRANEQLSNYLNWYQQKPGKAPKVLIYFTSSLHSGVPSRFSGSGSGTDFTLTISSLQPEDFATYYCQQYSTVPWTFGQGTKVEIKR	4
pY0192 VH T59A (Fab, V domains shown) VH: EVQLVESGGGLVQPGGSLRLSCAASGYTFTNYGINWVRQAPGKGLEWVGWINTYTGEPAYAADFKRRFTFSLDTSKSTAYLQMNSLRAEDTAVYYCAKYPHYYGSSHWYFDVWGQGTL VL: DIQLTQSPSSLSASVGDRVTITCRANEQLSNYLNWYQQKPGKAPKVLIYFTSSLHSGVPSRFSGSGSGTDFTLTISSLQPEDFATYYCQQYSTVPWTFGQGTKVEIKR	3
pY0192 VH Y99A (Fab, V domains shown) VH: EVQLVESGGGLVQPGGSLRLSCAASGYTFTNYGINWVRQAPGKGLEWVGWINTYTGEPTYAADFKRRFTFSLDTSKSTAYLQMNSLRAEDTAVYYCAKAPHYYGSSHWYFDVWGQGTL VL: DIQLTQSPSSLSASVGDRVTITCRANEQLSNYLNWYQQKPGKAPKVLIYFTSSLHSGVPSRFSGSGSGTDFTLTISSLQPEDFATYYCQQYSTVPWTFGQGTKVEIKR	> 150
pY0192 VH P100A (Fab, V domains shown) VH: EVQLVESGGGLVQPGGSLRLSCAASGYTFTNYGINWVRQAPGKGLEWVGWINTYTGEPTYAADFKRRFTFSLDTSKSTAYLQMNSLRAEDTAVYYCAKYAHYYGSSHWYFDVWGQGTL VL: DIQLTQSPSSLSASVGDRVTITCRANEQLSNYLNWYQQKPGKAPKVLIYFTSSLHSGVPSRFSGSGSGTDFTLTISSLQPEDFATYYCQQYSTVPWTFGQGTKVEIKR	38
pY0192 VH H101A (Fab, V domains shown) VH: EVQLVESGGGLVQPGGSLRLSCAASGYTFTNYGINWVRQAPGKGLEWVGWINTYTGEPTYAADFKRRFTFSLDTSKSTAYLQMNSLRAEDTAVYYCAKYPAYYGSSHWYFDVWGQGTL VL: DIQLTQSPSSLSASVGDRVTITCRANEQLSNYLNWYQQKPGKAPKVLIYFTSSLHSGVPSRFSGSGSGTDFTLTISSLQPEDFATYYCQQYSTVPWTFGQGTKVEIKR	4
pY0192 VH Y102A (Fab, V domains shown) VH: EVQLVESGGGLVQPGGSLRLSCAASGYTFTNYGINWVRQAPGKGLEWVGWINTYTGEPTYAADFKRRFTFSLDTSKSTAYLQMNSLRAEDTAVYYCAKYPHAYGSSHWYFDVWGQGTL VL: DIQLTQSPSSLSASVGDRVTITCRANEQLSNYLNWYQQKPGKAPKVLIYFTSSLHSGVPSRFSGSGSGTDFTLTISSLQPEDFATYYCQQYSTVPWTFGQGTKVEIKR	4
pY0192 VH Y103A (Fab, V domains shown) VH: EVQLVESGGGLVQPGGSLRLSCAASGYTFTNYGINWVRQAPGKGLEWVGWINTYTGEPTYAADFKRRFTFSLDTSKSTAYLQMNSLRAEDTAVYYCAKYPHYAGSSHWYFDVWGQGTL VL: DIQLTQSPSSLSASVGDRVTITCRANEQLSNYLNWYQQKPGKAPKVLIYFTSSLHSGVPSRFSGSGSGTDFTLTISSLQPEDFATYYCQQYSTVPWTFGQGTKVEIKR	5
pY0192 VH S106A (Fab, V domains shown) VH: EVQLVESGGGLVQPGGSLRLSCAASGYTFTNYGINWVRQAPGKGLEWVGWINTYTGEPTYAADFKRRFTFSLDTSKSTAYLQMNSLRAEDTAVYYCAKYPHYYGSAHWYFDVWGQGTL VL: DIQLTQSPSSLSASVGDRVTITCRANEQLSNYLNWYQQKPGKAPKVLIYFTSSLHSGVPSRFSGSGSGTDFTLTISSLQPEDFATYYCQQYSTVPWTFGQGTKVEIKR	> 150
pY0192 VH W108A (Fab, V domains shown) VH: EVQLVESGGGLVQPGGSLRLSCAASGYTFTNYGINWVRQAPGKGLEWVGWINTYTGEPTYAADFKRRFTFSLDTSKSTAYLQMNSLRAEDTAVYYCAKYPHYYGSSHAYFDVWGQGTL VL: DIQLTQSPSSLSASVGDRVTITCRANEQLSNYLNWYQQKPGKAPKVLIYFTSSLHSGVPSRFSGSGSGTDFTLTISSLQPEDFATYYCQQYSTVPWTFGQGTKVEIKR	> 150
pY0192 VH Y109A (Fab, V domains shown) VH: EVQLVESGGGLVQPGGSLRLSCAASGYTFTNYGINWVRQAPGKGLEWVGWINTYTGEPTYAADFKRRFTFSLDTSKSTAYLQMNSLRAEDTAVYYCAKYPHYYGSSHWAFDVWGQGTL VL: DIQLTQSPSSLSASVGDRVTITCRANEQLSNYLNWYQQKPGKAPKVLIYFTSSLHSGVPSRFSGSGSGTDFTLTISSLQPEDFATYYCQQYSTVPWTFGQGTKVEIKR	19

From EP2336190A2 (Genentech, Inc., dated 2011)
